# Measured values as given in publication PMC4976356, “Structural insight into β-Clamp and its interaction with DNA Ligase in Helicobacter pylori” (Scientific Reports, 2016).
# B1: β-clamp from Helicobacter pylori 26695 (natural protein, UniProt O25242 1-374, looked up)
# chain: MKISVSKNDLENALRYLQAFLDKKDASSIASHIHLEVIKEKLFLKASDSDIGLKSYIFTQSSDKEGVGTINGKKFLDIISCLKDSNIILETKDDSLAIKQNKSSFKLPMFDADEFPEFPVIDPKVSIEVNAPFLVDAFKKIAPVIEQTSHKRELAGILMQFDQKHQTLSVVGTDTKRLSYTQLEKISIHSTEEDISCILPKRALLEILKLFYENFSFKSDGMLAVIENEMHTFFTKLIDGNYPDYQKILPKEYISSFTLGKEEFKESIKLCSSLSSTIKLTLEKNNALFESLDSEHSETAKTSVEIEKGLDIEKAFHLGVNAKFFLEALNALGTTQFVLRCNEPSSPFLIQESLDEKQSHLNAKISTLMMPITL
# notes: DNA polymerase III beta subunit (β-clamp) of Helicobacter pylori 26695; domains I-III span Met1 to Leu374; Cloned between NcoI and XhoI of pET 28(b); the reverse primer has no stop codon, so a C-terminal vector His tag is likely (surmised); By the printed forward primer the ATG of the NcoI site is out of frame with the gene's own ATG; also called Hpβ-clamp; H. pylori β-clamp; source: E. coli …
# Columns and labels:
# [1] = biological target: T1, NAD-dependent DNA ligase from Helicobacter pylori 26695 (Helicobacter pylori 26695, UniProt O25336 1-656); details: both partners purified
# T1 construct: Cloned and expressed in a similar manner to the β-clamp (NcoI/XhoI, pET 28(b)); by the printed forward primer Met-Gly would stand before Met1, and the reverse primer has no stop codon, so a C-terminal vector His tag is likely (surmised); also called HpDNA ligase; Hpligase; source: E. coli BL21, purified (Ni Sepharose, HiLoad G200 gel filtration)
# [2] = biological target: the molecule itself; test: SEC; gel filtration on HiLoad G200 16/60; 30 mM Tris pH 7.5, 150 mM NaCl, 5% glycerol, 30 mM arginine, 6 mM βMe
binder,measurement,setting,value
B1,Kd,[1],1.25 µM
same,stoichiometry N,[2],2
